Residue numbers refer to the chain shown, from its start.
T1: human CD30 (commercial), conjugated to digoxigenin (human) (UniProt P28908)
T1 sequence (conjugated to digoxigenin (DIG), looked up): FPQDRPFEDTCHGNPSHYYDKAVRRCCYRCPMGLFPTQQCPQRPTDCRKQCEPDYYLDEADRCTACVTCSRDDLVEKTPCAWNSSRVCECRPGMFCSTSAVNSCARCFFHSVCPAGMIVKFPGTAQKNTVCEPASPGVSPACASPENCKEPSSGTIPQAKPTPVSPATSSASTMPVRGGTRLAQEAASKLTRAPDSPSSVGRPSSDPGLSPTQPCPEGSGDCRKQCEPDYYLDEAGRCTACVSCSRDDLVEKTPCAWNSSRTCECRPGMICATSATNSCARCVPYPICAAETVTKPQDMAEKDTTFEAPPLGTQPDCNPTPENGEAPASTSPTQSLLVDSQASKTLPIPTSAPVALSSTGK

B1: AC10 H2L3 (H2 AC10 VH, L3 AC10 VL) (antibody, from a related filing, IgG1, V domains shown)
VH: QIQLVESGGGLVKPGGSLRLSCAASGYTFTDYYITWVRQAPGQGLEWMGWIYPGSGNTKYNEKFQGRVTMTVDTSTSTAYMELSSLRSEDTAVYFCANYGNYWFAYWGQGTLVTVSS
VL: DIVLTQSPDSLAVSLGERATINCKASQSVDFDGDSYMNWYQQKPGQPPKVLIYAASNLESGIPARFSGSGSGTDFTLTINSLEAEDAATYYCQQSNEDPWTFGGGTKVEIK
B2: AC10 H1L2 (H1 AC10 VH, L2 AC10 VL) (antibody, from a related filing, IgG1, V domains shown)
VH: QIQLVQSGPEVKKPGASVKVSCKASGYTFTDYYITWVRQAPGQGLEWMGWIYPGSGNTKYNEKFQGRVTITVDTSASTAYMELSSLRSEDTAVYFCANYGNYWFAYWGQGTLVTVSS
VL: DIVLTQSPSSLSASVGDRVTITCRASQSVDFDGDSYMNWYQQKPGQPPKVLIYAASNLESGIPARFSGSGSGTDFTLTISSLQPEDFATYYCQQSNEDPWTFGGGTKVEIK
B3: AC10 H3L3 (H3 AC10 VH, L3 AC10 VL) (antibody, from a related filing, IgG1, V domains shown)
VH: B2 VH with V68F, T69V, I70F, T71S, M81L, E82Q, L83I, R87K, S88A
VL: B1 VL
B4: AC10 H1L1 (H1 AC10 VH, L1 AC10 VL) (antibody, from a related filing, IgG1, V domains shown)
VH: B2 VH
VL: B2 VL with S9A, S10T, A13L, V15P, D17E, V19A, I21L, T22S
B5: AC10 H2L1 (H2 AC10 VH, L1 AC10 VL) (antibody, from a related filing, IgG1, V domains shown)
VH: B1 VH
VL: B2 VL with S9A, S10T, A13L, V15P, D17E, V19A, I21L, T22S
B6: AC10 H3L1 (H3 AC10 VH, L1 AC10 VL) (antibody, from a related filing, IgG1, V domains shown)
VH: B2 VH with V68F, T69V, I70F, T71S, M81L, E82Q, L83I, R87K, S88A
VL: B2 VL with S9A, S10T, A13L, V15P, D17E, V19A, I21L, T22S
B7: AC10 H1L3 (H1 AC10 VH, L3 AC10 VL) (antibody, from a related filing, IgG1, V domains shown)
VH: B2 VH
VL: B1 VL
B8: AC10 H2L2 (H2 AC10 VH, L2 AC10 VL) (antibody, from a related filing, IgG1, V domains shown)
VH: B1 VH
VL: B2 VL

Tests used:
[1] = biological target: GST-fused human V158 FcγRIIIa (extracellular region) (human) (UniProt P08637); assay: AlphaScreen competition with biotin-WT AC10
[2] = biological target: GST-fused human V158 FcγRIIIa (extracellular region) (human) (UniProt P08637); assay: SPR, GST-FcγRIIIa V158 on chip
[3] = biological target: CD30 fused to the Fc region of IgG1 (R&D Systems) (UniProt P28908); assay: SPR, CD30-Fc on Protein A chip
[4] = biological target: T1, human CD30 (commercial), conjugated to digoxigenin (human); assay: AlphaScreen competition with biotin-WT AC10

GST-fused human V158 FcγRIIIa (extracellular region) (human), sequence (P08637 17-208 F176V): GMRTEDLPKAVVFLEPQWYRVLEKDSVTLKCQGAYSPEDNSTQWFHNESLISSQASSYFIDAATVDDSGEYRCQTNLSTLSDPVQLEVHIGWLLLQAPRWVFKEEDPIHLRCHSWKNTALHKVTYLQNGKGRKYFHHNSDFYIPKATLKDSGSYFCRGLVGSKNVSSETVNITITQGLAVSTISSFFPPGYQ

Molecule | IC50 [1] [nM] | Kd [2] [nM] | Fold KD relative to WT [3] [fold] | Kd [3] [nM] | Fold IC50 relative to WT [1] [fold] | Fold KD relative to WT [2] [fold] | Fold IC50 relative to WT [4] [fold] | IC50 [4] [nM]
WT AC10 antibody H0L0 (H0 AC10 VH, L0 AC10 VL) | 87.2 | 18.6 |  |  |  |  |  | 
B1 | 183 | 3.52 | 0.5 | 6.75 | 0.48 | 5.28 | 0.12 | 27.2
B2 | 340 | 16.6 | 0.45 | 7.55 | 0.26 | 1.12 | 0.07 | 45.3
B3 | 83.5 | 6.13 | 1.45 | 2.33 | 1.04 | 3.03 | 1.59 | 1.99
B4 | 221 | 11.2 | 0.6 | 5.63 | 0.39 | 1.66 | 0.11 | 27.7
B5 | 751 | 14.9 | 0.36 | 9.49 | 0.12 | 1.25 | 0.06 | 55.1
B6 | 209 | 17.4 | 1.39 | 2.44 |  |  |  | 6.09
B7 | 178 | 11.2 | 0.67 | 5.09 | 0.49 | 1.66 | 0.18 | 17.4
B8 |  | 4.01 |  | 5.95 |  |  |  | 49.2

Reference: patent publication US20110236969A1
